{"source": "paper PMC10374912", "about": "(Nature Communications, 2023)", "binders": {"B1": {"name": "Rtg1 (recombinant, co-expressed with Rtg3-6XHis) (natural protein, C. albicans, UniProt Q5APP3 1-274, looked up)", "chain": "MSQFGEFYDTYSVENNQQYDTDLNNSTNTPIVQSKQRNDNIIPSINIKQEDFDSVLSGSLDVKKQLSSSLNTAGVGIGSSYGNGGISKPQSRRNSTYIKSHEGSDNEDEDDQNDKDVGNERKRRDNINDKIQELLTLIPSEFFQSNTDNNTKTGTKVVKENSPEDDAVKNSGTKDGKPNKGQILTKSVEYLQYLQNLIDENNRKEVELIMRLKTLELKAANRPSENIPIRIGYTSAEKALGEIGVGPCSEEYFKNVLIKSASTSKSGRRGSTSG", "notes": "Rtg1, basic helix-loop-helix transcription factor of Candida albicans; untagged; source: E. coli BL21(DE3), co-expressed with Rtg3-6XHis from pColaDuet (pLC1452), purified (Ni-NTA, heparin, SEC)"}}, "target": "T1, Rtg3-6XHis (recombinant, co-expressed with Rtg1) (C. albicans, UniProt A0A1D8PF20 1-520)", "T1 construct": "Rtg3, basic helix-loop-helix transcription factor of Candida albicans; also called tagged Rtg3; Rtg3X6his; source: E. coli BL21(DE3), co-expressed with Rtg1 from pColaDuet (pLC1452), purified (Ni-NTA, heparin, SEC)", "T1 sequence (looked up)": "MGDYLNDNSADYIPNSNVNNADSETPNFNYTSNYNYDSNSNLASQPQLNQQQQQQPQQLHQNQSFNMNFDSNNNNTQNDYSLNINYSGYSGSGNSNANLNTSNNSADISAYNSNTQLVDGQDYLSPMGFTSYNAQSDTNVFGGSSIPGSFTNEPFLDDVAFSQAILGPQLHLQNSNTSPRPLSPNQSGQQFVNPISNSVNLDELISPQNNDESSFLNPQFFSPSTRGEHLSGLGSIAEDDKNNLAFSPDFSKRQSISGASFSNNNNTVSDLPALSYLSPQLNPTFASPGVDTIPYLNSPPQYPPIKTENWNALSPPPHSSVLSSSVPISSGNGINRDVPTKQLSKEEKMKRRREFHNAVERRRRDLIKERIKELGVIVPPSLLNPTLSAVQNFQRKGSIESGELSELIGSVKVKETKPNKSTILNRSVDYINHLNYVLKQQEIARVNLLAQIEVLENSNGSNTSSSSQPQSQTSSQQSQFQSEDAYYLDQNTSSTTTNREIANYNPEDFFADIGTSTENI", "assay": "SEC; Rtg1 and Rtg3-6XHis co-expressed in E. coli, co-purified by Ni-NTA and heparin, then HiLoad 16/600 Superdex 200 pg; 25 mM HEPES-NaOH pH 7.8, 300 mM NaCl, 5% glycerol; ambient temperature; fractions on SDS-PAGE, Coomassie", "details": "both partners purified", "data": [{"binder": "B1", "values": [{"measurement": "stoichiometry N", "result": "~1"}]}]}
